The text below walks through data of patent publication US20150175693A1 (UNIVERSIT TSKLINIKUM REGENSBURG, published 2015).

This test has as its target T1, IL-3 receptors on human basophils, pDC, monocytes and B cells (PBMC) (human, UniProt P26951 19-378; P32927 17-897).
T1 construct: whole, on cells; Natural receptor on primary human blood cells; the cells were sorted by CD123 and HLA-DR staining; also called CD123
Kind of test: flow cytometry, biotinylated hIL-3 on human PBMC, avidin-FITC. The method, then:
Binding of IL-3 to human peripheral blood mononuclear cells (PBMC) was analysed using commerically available biotinylated IL-3. For the assay, biotinylated IL-3 was incubated with PBMC and binding detected via Avidin-Fluorescein (biotinylated hIL-3 and other reagents obtained from R&D Systems, Inc., Cat. No. NF300).
10 μl of the isolated and incubated PBMC cell preparation (10 Mio. cells/ml) were added to each of the preincubated IL-3/antibody or negative control samples and further incubated for 1 hour at 4° C. For the detection of IL-3 bound to PBMC, 10 μl avidin-FITC reagent together with anti-human CD123 PE-Cy5 (1:10) and anti-HLA-DR II APC (1:50) were added and the samples incubated for a further 30 min at 4° C. Cells were washed twice with 2 ml 1×RDF1 buffer and resuspended in 200 μl of this buffer per sample and FACS analysis performed. Basophils were identified by high expression of CD123 and absence of HLA-DR. Plasmacytoid dendritic cells (pDC) were identified by high expression of CD123 and HLA-DR. Monocytes and B cells were identified by light scatter properties and expression of HLA-DR.
On the technique in general: In flow cytometry, cells or beads pass a laser one at a time.

T1 sequence (P26951 19-378, chain 1 of 2): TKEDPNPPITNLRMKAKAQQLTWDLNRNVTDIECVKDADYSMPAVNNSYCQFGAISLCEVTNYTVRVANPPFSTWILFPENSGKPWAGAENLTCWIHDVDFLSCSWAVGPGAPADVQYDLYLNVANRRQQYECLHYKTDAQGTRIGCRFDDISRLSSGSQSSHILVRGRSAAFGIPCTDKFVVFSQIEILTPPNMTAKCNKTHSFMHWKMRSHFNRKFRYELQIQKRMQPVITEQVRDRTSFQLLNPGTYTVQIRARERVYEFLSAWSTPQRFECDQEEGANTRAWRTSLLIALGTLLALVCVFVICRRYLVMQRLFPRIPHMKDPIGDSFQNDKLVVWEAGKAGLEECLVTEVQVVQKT
T1 sequence (P32927 17-897, chain 2 of 2): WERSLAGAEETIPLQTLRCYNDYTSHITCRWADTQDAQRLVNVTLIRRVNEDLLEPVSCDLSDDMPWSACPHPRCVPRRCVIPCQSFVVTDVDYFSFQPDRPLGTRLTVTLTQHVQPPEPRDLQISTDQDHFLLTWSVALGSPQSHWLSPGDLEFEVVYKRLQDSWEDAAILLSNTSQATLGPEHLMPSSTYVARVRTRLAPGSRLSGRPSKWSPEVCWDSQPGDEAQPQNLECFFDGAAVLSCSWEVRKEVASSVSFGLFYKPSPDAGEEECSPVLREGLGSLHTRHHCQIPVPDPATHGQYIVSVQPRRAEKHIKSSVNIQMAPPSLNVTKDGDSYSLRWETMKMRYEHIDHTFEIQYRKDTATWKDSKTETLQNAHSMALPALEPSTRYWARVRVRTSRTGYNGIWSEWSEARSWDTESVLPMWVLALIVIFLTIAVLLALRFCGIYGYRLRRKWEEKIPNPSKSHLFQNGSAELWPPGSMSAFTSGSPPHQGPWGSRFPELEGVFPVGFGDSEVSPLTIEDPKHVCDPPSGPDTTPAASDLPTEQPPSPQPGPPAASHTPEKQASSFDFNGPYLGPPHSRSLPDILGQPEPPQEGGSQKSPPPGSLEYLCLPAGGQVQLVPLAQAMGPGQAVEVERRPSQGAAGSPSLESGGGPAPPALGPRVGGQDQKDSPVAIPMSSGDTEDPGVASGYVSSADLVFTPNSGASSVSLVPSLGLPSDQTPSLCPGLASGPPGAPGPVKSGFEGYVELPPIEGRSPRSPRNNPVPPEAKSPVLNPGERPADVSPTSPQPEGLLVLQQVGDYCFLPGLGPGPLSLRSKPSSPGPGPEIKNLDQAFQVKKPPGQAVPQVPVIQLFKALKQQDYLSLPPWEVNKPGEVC

B1: biotinylated hIL-3 (R&D Systems, Cat. No. NF300) (ligand)
chain: APMTQTTPLKTSWVNCSNMIDEIITHLKQPPLPLLDFNNLNGEDQDILMENNLRRPNLEAFNRAVKSLQNASAIESILKNLLPCLPLATAAPTRHPIHIKDGDWNEFRRKLTFYLKTLENAQAQQTTLSLAIF
modifications: biotinylated (sites not given)
notes: Bought reagent; also called biotinylated IL-3
Turning to B1, the binding result is reported as “binds”.
